# Measured values published in PMC6408466, “Inner lumen proteins stabilize doublet microtubules in cilia and flagella” (Nature Communications, 2019).
# B1: FAP52 (flagellar-associated protein 52) (natural protein, UniProt A8ILK1 1-615, looked up)
# chain: MAEPLVLNSVIGFGGAIENGLIAHPDGRTIIYPLGSTIVLRDRADPRSQEFLQGHSDKVSCLALSRSGRYLASGQITYMGFTADIIIWDLESKQLIHRMALHKVKVQALDFSCDERFLASLGGQDDNALVLWDVASGNAICGSPCNTNFTNCVKFFNNSPDKLITAGNFNMNVWTYDAGNNKLRPTDATLGTLKRVFKSVVVDANDEYAYCGTTTGDVLQIALERVLFKNTGPAKGNVQMGVTATCEVPTGDILVGGGDGSLQLLRKMPALAGTKVEGAITSIALADMNARGFTFFVGTAMCNIYKPATSRLKEELVQTAHNDKINGMAFPNEYSEVFATCGTGFIRLWHLTTCRELLRIAVPNLECFCIAFTTDGSAILSGWSDGKIRAFGPQSGKIIFTINDAHQKAVTAIASTADSSRILSGGEEGMVRVWRIGRTSQTLEASMKDHKGPVNCIRIKGSGDECVSASSDGSCILWDLHTFKRRTSLFANTFFKSVVYHPDESQLVTAGTDRKVTYWDAYDGNAIRIIDGSDLDEVNALAVDRDGEALVSGGGDKLVKLWGYDEGHCYFVGVAHSGAITAVGVTPDKQRIVSVGTEGGIFIWDYQRPQTLADI
# notes: FAP52 of Chlamydomonas, ortholog of human WDR16, ~66 kDa, WD40 repeat protein; endogenous protein in the axoneme; also called FAP52/WDR16; MIP3a; source: endogenous, isolated wild type Chlamydomonas axonemes
# Target: T1, FAP45 (flagellar-associated protein 45) (Chlamydomonas (endogenous in wild type …, UniProt A8I9E8 1-501))
# T1 construct: FAP45 of Chlamydomonas, a coiled-coil protein of 501 amino acids, predicted ~59 kDa; endogenous protein in the axoneme; also called FAP45/CCDC19; MIP3c; source: endogenous, isolated wild type Chlamydomonas axonemes
# T1 sequence (looked up): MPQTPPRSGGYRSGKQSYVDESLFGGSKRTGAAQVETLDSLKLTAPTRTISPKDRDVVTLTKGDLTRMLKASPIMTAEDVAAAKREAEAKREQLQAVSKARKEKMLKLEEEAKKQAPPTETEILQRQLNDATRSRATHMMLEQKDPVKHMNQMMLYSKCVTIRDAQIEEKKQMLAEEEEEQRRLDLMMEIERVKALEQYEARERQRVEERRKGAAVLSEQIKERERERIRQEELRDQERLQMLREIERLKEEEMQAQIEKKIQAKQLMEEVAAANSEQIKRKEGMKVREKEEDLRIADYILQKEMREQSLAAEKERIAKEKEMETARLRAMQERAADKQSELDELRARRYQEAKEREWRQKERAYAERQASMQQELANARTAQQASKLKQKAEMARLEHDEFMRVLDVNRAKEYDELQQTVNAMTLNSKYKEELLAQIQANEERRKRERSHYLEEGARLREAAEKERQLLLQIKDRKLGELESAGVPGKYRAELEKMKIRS
# Assay: cross-linking; EDC-crosslinked wild type axonemes solubilized, crosslinked products immunoprecipitated with anti-FAP45 antibody, LC tandem MS of the precipitates
# Conditions: partners not purified
binder,measurement,value
B1,stoichiometry N,1
